Data as given in US20230265212A1 (OVERA, published 2023).
Like-named read-outs stand apart in the source and are kept apart here.

Tests used:
[1] = target: peptide-BSA conjugate (respective antigens of the antibodies); experiment: biolayer interferometry (Octet), peptide-BSA conjugate
[2] = target: T1, BSA conjugated to SAS1B peptide A (CGGLEETPESSFLIEGDIIRPSPFRL) (conjugated to BSA); experiment: BLI (Octet)
T1 peptide: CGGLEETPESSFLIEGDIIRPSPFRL

[3] = target: T1, BSA conjugated to SAS1B peptide A …; experiment: BLI (Octet)
[4] = target: T2, BSA conjugated to SAS1B peptide A (CGGLEETPESSFLIEGDIIRPSPFRL) (human, conjugated to BSA); experiment: biolayer interferometry (Octet), peptide-BSA conjugate
T2 construct: also called peptide-BSA conjugate
T2 peptide: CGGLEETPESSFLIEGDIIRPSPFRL
Procedure: Protein A-Purified antibodies were subjected to binding kinetic analysis via biolayer interferometry (Fortebio's Octet instrument) and the parameters of binding to peptide-BSA conjugate were determined (FIGS. 8 and 9). […] The dissociation constants (Kdis) from these three clones were too slow to be accurately fit (<1×10⁻⁶ sec⁻¹). With the caveat that Kdis were inaccurate due to these long residency times, KDs were calculated (FIGS. 8 and 9).

[5] = target: T2, BSA conjugated to SAS1B peptide A …; experiment: colorimetric ELISA, BSA-peptide A coated, anti-mouse IgG-HRP
Excerpt: Colorimetric ELISA data comparing binding of naked OV119 to OV119 conjugated using stochastic chemistry (OV119-WT-OM) and AJICAP site-specific conjugation (OV119-CAP-DM1). The solid phase was coated with BSA conjugated to SAS1B peptide A ([…]). Normalized concentrations of the three antibody moieties were titrated by serial 5-fold dilution. A secondary antibody specific for mouse IgG and conjugated to horse radish peroxidase was then applied. After development using TMB substrate and reaction stopping with H₂SO₄, absorbance of light at 450 nm was measured and plotted against antibody concentration (FIG. 14).

B1: monoclonal antibody OV123 (antibody, V domains shown)
VH: EVQLQESGPGLVKPSQSLSLTCTVTGYSITSDNAWNWIRQFPGNKLEWMGYISYSGRTSYNPSLKSRISVTRDTSKNRFFLQLNSVTTEDTATYYCARIGSYFTMDYWGQGTSVTVSS
VL: DVVMTQTPLSLSVGLGDQASISCRSSQSLVHINGSTYLHWYLQKPGQSPKLLIYKIANRFSGVPDRFSGSGSGTDFTLKISRVEAEDLGAYFCSQSTHVPLTFGAGTKLEIK
- koff [1]: < 1e-06 s⁻¹
- Kd [2]: 0.284 nM

B2: monoclonal antibody OV124 (antibody, V domains shown)
VH: EVQLQESGAELMKPGASVKLSCKATGSIFNKYWIDWVRQRPGHGLEWIGEILPGSGSTIYSEKFKGKATITADTSSNTAYMQLSSLTSEDSAVYYCASRALDYWGQGTTLTVSS
VL: DVVMTQTPLSLPVSLGDQASISCRSSQSLIHSNGNTYLHWYLQKPGQSPKLLIYQVSNRFSGVPDRFSGSGSGTDFTLKISRVEAEDLGVYFCSQSTHVPYTFGGGTKLEIK
- koff [1]: < 1e-06 s⁻¹
- Kd [2]: 0.115 nM

B3: monoclonal antibody OV121 (antibody, V domains shown)
VH: EVQLQESGPGLVKPSQSLSLTCTVTGYSVTSDSAWNWIRQFPGNKLEWMGYISYSGSTTYNPSLKSRISITRDTSENQFFLQLRSVTTEDTATYYCARLGNLFTMDYWGQGTSVTVSA
VL: EILLTQSPVILAASPGEKVTITCSASSSLNYMNWYQQRPGSSPKIWIYGISNLASGVPARFSGSGSGTSFSFTINSMEAEDVATYYCQQRSSFPFTFGSGTKLEIK
- Kd [3]: 0.532 nM

B4: monoclonal antibody OV119 (antibody, V domains shown)
VH: EVQLQESGPELVKPGASVKISCKTSGYTFTEYPMHWVKQSHGKSLEWIGGINPNNGDTTYNQRFKGKATLTVDKSSGTAYMELRSLTSEDSAVYYCVPNFDWFAYWGQGTLVTVSP
VL: DVLMTQSPLSLPVSLGDQASISCRSSQSIVHSYGNTYLEWYLQKPGQSPKLLIYKVSNRFSGVPDRFSGSGSGTDFTLRISRVEAEDLGIYYCFQGSHLPFTFGGGTKLEIK
notes: Mouse hybridoma monoclonal IgG; also called naked OV119 (unconjugated)
- koff [4]: < 1e-06 s⁻¹
- Kd [2]: 0.0343 nM

B5: monoclonal antibody OV115 (antibody, V domains shown)
VH: DVQLQESGPGLVKPSQSLSLTCTVTGYSLTSDYAWNWIRQFPGKKVEWMGYLSYSGRTSYNPSLKSRISITRDTSRNQFFLQLNSVTTEDTATYYCARMGGNFGFDYWGQGTTLTVST
VL: GIVMTQAPLSLPVSLGDQASISCRSSQSLVHINGSTYLHWYLQKPGQSPNLLIYKVSYRFSGVPDRFSGSGSGTDFTLKITRVEAEDLGVYFCSQSTHVPLTFGSGTKLEIK
- Kd [3]: < 0.001 nM

B6: OV119 conjugated to DM1 using AJICAP site-specific conjugation (antibody, V domains shown)
VH: B4 VH
VL: B4 VL
modifications: DM1 on the heavy chain by AJICAP site-specific conjugation via azide intermediates, 1 or 2 DM1 molecules per heavy chain (DAR 2, 3 and 4); residue not stated
notes: Antibody-drug conjugate of mouse IgG OV119; also called OV119-DM1; OV119-CAP-DM1
- binding result [5]: binds

B7: OV119 conjugated using stochastic chemistry (OV119-WT-OM) (antibody, V domains shown)
VH: B4 VH
VL: B4 VL
modifications: drug conjugated by stochastic chemistry; sites and drug load not stated
notes: Stochastic conjugate of OV119
- binding result [5]: binds
